Measurements: paper PMC4618232 (Nature chemical biology, 2015)
Each block holds one binder with its values, some of them ahead of it.

B1: mouse XXYLT1 (Xylosideα1–3 Xylosyltransferase), soluble domain S43–D392 after limited proteolysis with trypsin (enzyme, UniProt Q3U4G3 93-391, looked up)
chain: VVPVDYHLLMMFTKAEHNAPLQAKARVALSSLLRLAKFEAHEVLNLHFVSEEASREVAKALLRELLPPAAGFKCKVIFHDVAVLTDKLFPVVEAMQKYFSAGSGTYYSDSIFFLSVAMHQIMPKEIPRIIQLDLDLKYKTNIRELFEEFDNFLPGAVIGIAREMQPVYRHTFWQFRHENPKTRVGDPPPEGLPGFNSGVMLLNLEAMRQSPLYSHLLEPSWVQQLADKYHFRGHLGDQDFFTMIGMEHPELFHVLDCTWNRQLCTWWRDHGYSDVFQAYFRCEGHVKIYHGNCNTPIPE

Tests used:
crystal structure = molecular target: the molecule itself; assay: crystal structure
[1] = molecular target: B1; assay: SEC
[2] = molecular target: B1; assay: crystal structure

Binder: B1
stoichiometry N (crystal structure): 2

binding result [1]: binds
Binder: VDGDQCESNPCLNGGSCKDDINSYECWCPFGFEGKNCEL (domain or fragment, Xyl-Glc disaccharide on Ser53) [human factor IX (hFA9) EGF repeat modified with the Xyl-Glc disaccharide]

binding result [2]: binds
Binder: VDGDQCESNPCLNGGSCKDDINSYECWCPFGFEGKNCEL (domain or fragment, Xyl-Xyl-Glc trisaccharide on Ser53) [human factor IX (hFA9) EGF repeat with the Xyl-Xyl-Glc trisaccharide (product of XXYLT1)]
